Measured values as given in article PMC7105484, “Crystal structures of REF6 and its complex with DNA reveal diverse recognition mechanisms” (Cell Discovery, 2020).

How the values were obtained:
REF6 ZnF1-4 WT [1] = target: T1, REF6 ZnF1-4 WT (Arabidopsis thaliana, UniProt Q9STM3 1223-1360); experiment: MST; MST: 20 mM HEPES pH 7.3, 150 mM NaCl, 0.2 mM TCEP, 0.5% CA-630, 25 C; EMSA: 30 uM protein, 10 uM dsDNA, 20 mM Tris pH 8.0, 100 mM NaCl, 2.5 mM MgCl2, 0.1% CA-630, 10% glycerol, 1 uM ZnSO4, 1 mM DTT, 4 C; details: protein: recombinant, tags: His6-MBP or GST tag, TEV-cleavable (cleaved when necessary)
T1 sequence: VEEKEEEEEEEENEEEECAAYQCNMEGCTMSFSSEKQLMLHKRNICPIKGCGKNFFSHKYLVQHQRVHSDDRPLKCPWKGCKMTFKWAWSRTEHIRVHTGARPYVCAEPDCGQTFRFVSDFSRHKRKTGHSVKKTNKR

REF6 ZnF1-4 WT [2] = target: T1, REF6 ZnF1-4 WT; experiment: EMSA; MST: 20 mM HEPES pH 7.3, 150 mM NaCl, 0.2 mM TCEP, 0.5% CA-630, 25 C; EMSA: 30 uM protein, 10 uM dsDNA, 20 mM Tris pH 8.0, 100 mM NaCl, 2.5 mM MgCl2, 0.1% CA-630, 10% glycerol, 1 uM ZnSO4, 1 mM DTT, 4 C; details: protein: recombinant, tags: His6-MBP or GST tag, TEV-cleavable (cleaved when necessary)
[3] = target: the molecule itself; experiment: SEC; analytical gel filtration, Superdex 200 10/300 GL, 5.0 mg mL^−1, no DNA; 20 mM HEPES pH 7.3, 500 mM NaCl, 2 mM β-mercaptoethanol
REF6 ZnF1-4 WT [4] = target: T1, REF6 ZnF1-4 WT; experiment: MST; Hill coefficient 1.9; MST: 20 mM HEPES pH 7.3, 150 mM NaCl, 0.2 mM TCEP, 0.5% CA-630, 25 C; EMSA: 30 uM protein, 10 uM dsDNA, 20 mM Tris pH 8.0, 100 mM NaCl, 2.5 mM MgCl2, 0.1% CA-630, 10% glycerol, 1 uM ZnSO4, 1 mM DTT, 4 C; details: protein: recombinant; tags: His6-MBP or GST tag, TEV-cleavable (cleaved when necessary); label: FAM in MST
REF6 N1276F = target: T2, REF6 N1276F (Arabidopsis thaliana, UniProt Q9STM3 1223-1360, N1276F); experiment: MST; MST: 20 mM HEPES pH 7.3, 150 mM NaCl, 0.2 mM TCEP, 0.5% CA-630, 25 C; EMSA: 30 uM protein, 10 uM dsDNA, 20 mM Tris pH 8.0, 100 mM NaCl, 2.5 mM MgCl2, 0.1% CA-630, 10% glycerol, 1 uM ZnSO4, 1 mM DTT, 4 C; details: protein: recombinant; tags: His6-MBP or GST, TEV-cleavable; label: FAM in MST
T2 sequence: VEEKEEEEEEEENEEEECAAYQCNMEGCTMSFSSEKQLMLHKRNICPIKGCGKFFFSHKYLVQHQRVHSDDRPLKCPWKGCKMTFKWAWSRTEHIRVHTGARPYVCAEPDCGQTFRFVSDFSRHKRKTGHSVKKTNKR

B1: m12 (G9A) (dsDNA)
DNA 1: CTTTCTCTATTTTGTC
DNA 2: GGACAAAATAGAGAAA
Work on B1 yielded a Kd (REF6 ZnF1-4 WT [1]; label: FAM, 5' overhang 1 nt on both strands (as m5)) of 4.5 µM.

B2: CUC2-4 (dsDNA)
DNA 1: TCCCTCTGTGCACGC
DNA 2: GCGTGCACAGAGGGA
B2: binds (REF6 ZnF1-4 WT [2]; label: FAM in MST).

B3: CUC1-5 (dsDNA)
DNA 1: TTTCTCTGCTCAAAT
DNA 2: ATTTGAGCAGAGAAA
B3: binds (REF6 ZnF1-4 WT [2]; label: FAM in MST).

B4: CUC2-1 (dsDNA)
DNA 1: TTGCTCTGTTAGTTC
DNA 2: GAACTAACAGAGCAA
B4: binds (REF6 ZnF1-4 WT [2]).

B5: REF6 fragment 1139–1360 (domain or fragment, Arabidopsis thaliana, UniProt Q9STM3 1139-1360, looked up)
chain: RSTAKRIAKTKTVQSSRDTKGRFLQEFASGKKNEELDSYMEGPSTRLRVRHQKPSRGSLETKPKKIGKKRSGNASFSRVATEKDVEEKEEEEEEEENEEEECAAYQCNMEGCTMSFSSEKQLMLHKRNICPIKGCGKNFFSHKYLVQHQRVHSDDRPLKCPWKGCKMTFKWAWSRTEHIRVHTGARPYVCAEPDCGQTFRFVSDFSRHKRKTGHSVKKTNKR
notes: source: E. coli BL21 (DE3), purified
With B5 the “stoichiometry N” value [3] was 2.

B6: CUC1-6 (dsDNA)
DNA 1: TTGCTCTGTTCGTTC
DNA 2: GAACGAACAGAGCAA
B6: binds (REF6 ZnF1-4 WT [2]).

B7: m5-m9'C (dsDNA)
DNA 1: CTTTCTCTGTTTTGTC
DNA 2: GGACAAAACAGAGAAA
modifications: methylcytosine at position 9 of strand 2 (9'C)
B7 showed a Kd (REF6 ZnF1-4 WT [1]; label: FAM in MST, 5' overhang 1 nt on both strands (as m5)) of 5.9 µM.

B8: CUC1-2 (dsDNA)
DNA 1: AGACTCTGTTTCAGA
DNA 2: TCTGAAACAGAGTCT
B8: binds (REF6 ZnF1-4 WT [2]).

B9: CUC1-3+4 (dsDNA)
DNA 1: TCTAAAACAGAGTCCTCCTTACTCTGTTTGTAA
DNA 2: TTACAAACAGAGTAAGGAGGACTCTGTTTTAGA
With B9 the binding signal (REF6 ZnF1-4 WT [4]) was 5 fold higher affinity than CUC1-3 (13-fold than CUC1-4) and the binding signal (REF6 N1276F) was 2.5 fold lower affinity than WT.

B10: REF6 fragment 1175–1360 (domain or fragment, Arabidopsis thaliana, UniProt Q9STM3 1175-1360, looked up)
chain: DSYMEGPSTRLRVRHQKPSRGSLETKPKKIGKKRSGNASFSRVATEKDVEEKEEEEEEEENEEEECAAYQCNMEGCTMSFSSEKQLMLHKRNICPIKGCGKNFFSHKYLVQHQRVHSDDRPLKCPWKGCKMTFKWAWSRTEHIRVHTGARPYVCAEPDCGQTFRFVSDFSRHKRKTGHSVKKTNKR
notes: as for B5
In the case of B10, the “stoichiometry N” value [3] is reported as 2.

B11: CUC2-2 (dsDNA)
DNA 1: TCTCTCTGTCTTTTC
DNA 2: GAAAAGACAGAGAGA
B11: binds (REF6 ZnF1-4 WT [2]).

B12: CUC1-3 (dsDNA)
DNA 1: GGACTCTGTTTTAGA
DNA 2: TCTAAAACAGAGTCC
Binder B12 has a Kd (REF6 ZnF1-4 WT [1]; label: FAM in MST) of 1 µM.

B13: CUC1-1 (dsDNA)
DNA 1: TTCCTCTGTTCTTAT
DNA 2: ATAAGAACAGAGGAA
B13: binds (REF6 ZnF1-4 WT [2]; label: FAM in MST).

B14: REF6 (residues 1223–1360) (domain or fragment, Arabidopsis thaliana, UniProt Q9STM3 1223-1360, looked up)
chain: VEEKEEEEEEEENEEEECAAYQCNMEGCTMSFSSEKQLMLHKRNICPIKGCGKNFFSHKYLVQHQRVHSDDRPLKCPWKGCKMTFKWAWSRTEHIRVHTGARPYVCAEPDCGQTFRFVSDFSRHKRKTGHSVKKTNKR
notes: The fusion tag was cleaved with TEV protease 'when necessary'
For B14, the “stoichiometry N” value [3] was 2.

B15: CUC2-3 (dsDNA)
DNA 1: TAGCTCTGATAAAAT
DNA 2: ATTTTATCAGAGCTA
B15: binds (REF6 ZnF1-4 WT [2]).

B16: CUC1-4 (dsDNA)
DNA 1: TTACTCTGTTTGTAA
DNA 2: TTACAAACAGAGTAA
B16 showed a Kd (REF6 ZnF1-4 WT [1]; label: FAM in MST) of 2.6 µM.
